Assay results taken from patent US20260043041A1, “HSL PROTEIN, GENE, VECTOR, CELL, COMPOSITION AND USE THEREOF, AND METHOD FOR IMPROVING HERBICIDE RESISTANCE OF CROPS” (CENTRAL CHINA NORMAL UNIVERSITY, priority 2022, published 2026).

B1: rice OsHIS1 wild type, SEQ ID NO: 2 (Oryza sativa Japonica Group) (protein)
chain: MADESWRAPAIVQELAAAGVEEPPSRYLLREKDRSDVKLVAAELPEPLPVVDLSRLDGAEEATKLRVALQNWGFFLLTNHGVEASLMDSVMNLSREFFNQPIERKQKFSNLIDGKNFQIQGYGTDRVVTQDQILDWSDRLHLRVEPKEEQDLAFWPDHPESFRDVLNKYASGTKRIRDDIIQAMAKLLELDEDYFLDRLNEAPAFARFNYYPPCPRPDLVFGIRPHSDGTLLTILLVDKDVSGLQVQRDGKWSNVEATPHTLLINLGDTMEVMCNGIFRSPVHRVVTNAEKERISLAMLYSVNDEKDIEPAAGLLDENRPARYRKVSVEEFRAGIFGKFSRGERYIDSLRI
notes: isolated enzyme, HPLC substrate-consumption assay with Fe(II), ascorbate and 2-oxoglutarate
B2: rice OsHSL1 wild type, SEQ ID NO: 1 (Oryza sativa Japonica Group) (protein)
chain: MADESWRTPAIVQELAAAGVEEPPSRYVLGEKDRSDELVAAELPEPIPVVDLSRLAGADEAAKLRAALQNWGFFLLTNHGVETSLMDDVLNLAREFFNQPIERKRKFSNLIDGKNFQVEGYGTDRVVTQDQILDWSDRLFLRVEPKEERNLAFWPDHPESFRDVLNEYASRTKRIRDDIVQAMSKLLGLDEDYFFDRLNKAPALARFNYYPPCPRPDLVFGVRPHSDGSLFTILLVDEDVGGLQIQRDGKWYNVQVTPNTLLINLGDTMEVLCNGIFRSPVHRVVTNAERERISLAMFYSVNDEKDIGPAAGLLDENRPARYRKVSVGEFRAGIIGKFSRRERYIDSLKI
notes: as for B1
B3: OsHSL1_L204F/F298L/I335A: three-point mutant OsHSL1_L204F/F298L/I335A containing I335; not listed in Table 2 (protein)
chain: MADESWRTPAIVQELAAAGVEEPPSRYVLGEKDRSDELVAAELPEPIPVVDLSRLAGADEAAKLRAALQNWGFFLLTNHGVETSLMDDVLNLAREFFNQPIERKRKFSNLIDGKNFQVEGYGTDRVVTQDQILDWSDRLFLRVEPKEERNLAFWPDHPESFRDVLNEYASRTKRIRDDIVQAMSKLLGLDEDYFFDRLNKAPAFARFNYYPPCPRPDLVFGVRPHSDGSLFTILLVDEDVGGLQIQRDGKWYNVQVTPNTLLINLGDTMEVLCNGIFRSPVHRVVTNAERERISLAMLYSVNDEKDIGPAAGLLDENRPARYRKVSVGEFRAGIAGKFSRRERYIDSLKI
B4: OsHSL1_F140H/L204F/I335F: SEQ ID NO.1 with F140 to histidine, L204 to phenylalanine, I335 to phenylalanine (protein)
chain: MADESWRTPAIVQELAAAGVEEPPSRYVLGEKDRSDELVAAELPEPIPVVDLSRLAGADEAAKLRAALQNWGFFLLTNHGVETSLMDDVLNLAREFFNQPIERKRKFSNLIDGKNFQVEGYGTDRVVTQDQILDWSDRLHLRVEPKEERNLAFWPDHPESFRDVLNEYASRTKRIRDDIVQAMSKLLGLDEDYFFDRLNKAPAFARFNYYPPCPRPDLVFGVRPHSDGSLFTILLVDEDVGGLQIQRDGKWYNVQVTPNTLLINLGDTMEVLCNGIFRSPVHRVVTNAERERISLAMFYSVNDEKDIGPAAGLLDENRPARYRKVSVGEFRAGIFGKFSRRERYIDSLKI
B5: OsHSL1_F140H/L204F/F298L/I335W: SEQ ID NO.1 with F140 to histidine, L204 to phenylalanine, F298 to leucine, I335 to tryptophan (protein)
chain: MADESWRTPAIVQELAAAGVEEPPSRYVLGEKDRSDELVAAELPEPIPVVDLSRLAGADEAAKLRAALQNWGFFLLTNHGVETSLMDDVLNLAREFFNQPIERKRKFSNLIDGKNFQVEGYGTDRVVTQDQILDWSDRLHLRVEPKEERNLAFWPDHPESFRDVLNEYASRTKRIRDDIVQAMSKLLGLDEDYFFDRLNKAPAFARFNYYPPCPRPDLVFGVRPHSDGSLFTILLVDEDVGGLQIQRDGKWYNVQVTPNTLLINLGDTMEVLCNGIFRSPVHRVVTNAERERISLAMLYSVNDEKDIGPAAGLLDENRPARYRKVSVGEFRAGIWGKFSRRERYIDSLKI
B6: OsHSL1_L204F/F298L/I335F: SEQ ID NO.1 with L204 to phenylalanine, F298 to leucine, I335 to phenylalanine (protein, listed as Oryza sativa)
chain: MADESWRTPAIVQELAAAGVEEPPSRYVLGEKDRSDELVAAELPEPIPVVDLSRLAGADEAAKLRAALQNWGFFLLTNHGVETSLMDDVLNLAREFFNQPIERKRKFSNLIDGKNFQVEGYGTDRVVTQDQILDWSDRLFLRVEPKEERNLAFWPDHPESFRDVLNEYASRTKRIRDDIVQAMSKLLGLDEDYFFDRLNKAPAFARFNYYPPCPRPDLVFGVRPHSDGSLFTILLVDEDVGGLQIQRDGKWYNVQVTPNTLLINLGDTMEVLCNGIFRSPVHRVVTNAERERISLAMLYSVNDEKDIGPAAGLLDENRPARYRKVSVGEFRAGIFGKFSRRERYIDSLKI

Tests used:
[1] = biological target: T1, rice OsHSL1 (SEQ ID NO: 1) mutant OsHSL1_F140H/L204F/F298L/I335A (Oryza sativa, UniProt A0A7G1K9G4, F140H/F298L/I335A/L204F); assay: Enzyme kinetic parameters with HPPD inhibitors as substrate (HPLC); format: biochemical; settings: compared with OsHSL1 wild type; close to the OsHIS1 wild type
T1 construct: isolated enzyme, HPLC assay
Text: (§1) High Performance Liquid Chromatography (HPLC) was used to test OsHIS1 wild-type protein (the amino acid sequence of OsHIS1 wild-type is shown as SEQ ID NO 2, and the corresponding nucleotide sequence is shown as SEQ ID NO 21), the enzyme kinetic parameters of OsHSL1 wild-type protein and some OsHSL1 mutant proteins with higher reactivity and HPPD inhibitors, and the specific results are shown in Table 9-Table 12. […] Each sample was replicated three times. • e.

[2] = tested on: Cc1c(C(=O)c2cnn(C)c2O)ccc(S(C)(=O)=O)c1C1=NOCC1; assay: as above; format: biochemical, rice; settings: other: pH 7.0, 30° C., about 20 min
Text: as §1

[3] = tested on: Cc1ccccc1-n1c(=O)c2c(C)c(C(=O)C3=C(O)CCCC3=O)ccc2n(C)c1=O; assay: as above; format: biochemical, rice; settings: other: pH 7.0, 30° C., about 20 min
Text: as §1

[4] = tested on: CS(=O)(=O)c1ccc(C(=O)C2C(=O)CCCC2=O)c([N+](=O)[O-])c1; assay: as above; format: biochemical, rice; settings: other: pH 7.0, 30° C., about 20 min
Text: as §1

[5] = substrate: Cc1ccccc1-n1c(=O)c2c(C)c(C(=O)C3=C(O)CCCC3=O)ccc2n(C)c1=O; assay: as above; format: biochemical, rice; settings: other: pH 7.0, 30° C., about 20 min; remark: listed apart in the source
Text: as §1

[6] = substrate: CS(=O)(=O)c1ccc(C(=O)C2C(=O)CCCC2=O)c([N+](=O)[O-])c1; assay: as above; format: biochemical, rice; settings: other: pH 7.0, 30° C., about 20 min; remark: listed apart in the source
Text: as §1

[7] = Catalytic activity of HSL proteins on HPPD inhibitors (HPLC, substrate consumption); format: biochemical; settings: 30° C., 10 h, protein 0.5 mg/mL; for Catalytic efficiency (%) Compound A: substrate Compound A 50 μM; for Catalytic efficiency (%) benzobicyclon technical: substrate benzobicyclon technical 50 μM; for Catalytic efficiency (%) Mesotrione: substrate mesotrione 50 μM; for Catalytic efficiency (%) methyl-benquitrione: substrate methyl-benquitrione 50 μM; for Catalytic efficiency (%) pyraquinate technical: substrate pyraquinate technical 50 μM; for Catalytic efficiency (%) tefuryltrione: substrate tefuryltrione 50 μM; for Catalytic efficiency (%) tembotrione: substrate tembotrione 50 μM
Procedure: (§2) Each sample was replicated three times. • e.
(§3) Control: refers to the addition of inhibitors to the reaction system, but not the addition of enzymes, which is regarded as the substrate surplus when the inhibitor is not catalyzed.
(§4) Sample: in the enzyme reaction system, the same volume and the same concentration (50 μM) of the inhibitor was added, and the catalytic efficiency of the enzyme to the inhibitor was observed.
(§5) Catalytic efficiency=(1−(peak area of substrate in sample)/(peak area of substrate in control))×100%.

[8] = format: biochemical; settings: for Catalytic efficiency (%) topramezone: substrate topramezone 50 μM, 30° C., 10 h, protein 0.5 mg/mL
Procedure: as §2, §3, §4, §5

[9] = Enzyme kinetic parameter study (HPLC, Michaelis-Menten fit); format: biochemical; settings: statement on Table 12
Text: as §1

T1 sequence (A0A7G1K9G4 entry or part of it F140H/L204F/F298L/I335A): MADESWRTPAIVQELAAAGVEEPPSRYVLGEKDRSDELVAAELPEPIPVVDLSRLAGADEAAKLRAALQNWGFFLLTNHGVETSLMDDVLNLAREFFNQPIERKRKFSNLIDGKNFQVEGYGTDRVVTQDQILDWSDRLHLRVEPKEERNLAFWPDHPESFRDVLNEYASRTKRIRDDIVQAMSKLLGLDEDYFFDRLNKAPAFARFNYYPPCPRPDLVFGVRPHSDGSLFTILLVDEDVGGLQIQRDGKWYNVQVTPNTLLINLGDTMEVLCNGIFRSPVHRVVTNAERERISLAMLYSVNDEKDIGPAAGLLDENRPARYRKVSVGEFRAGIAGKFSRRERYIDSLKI

Row | Molecule | Catalytic efficiency (%) Compound A [7] [%] | Catalytic efficiency (%) benzobicyclon technical [7] [%] | Catalytic efficiency (%) Mesotrione [7] [%] | Catalytic efficiency (%) methyl-benquitrione [7] [%] | Catalytic efficiency (%) pyraquinate technical [7] [%] | Catalytic efficiency (%) tefuryltrione [7] [%] | Catalytic efficiency (%) tembotrione [7] [%] | Catalytic efficiency (%) topramezone [8] [%] | other results
1 | CS(=O)(=O)c1ccc(C(=O)C2=C(Sc3ccccc3)C3CCC(C3)C2=O)c(Cl)c1 (stereo not drawn) [benzobicyclon technical, benzobicyclon] |  |  |  |  |  |  |  |  | affinity and catalytic efficiency (in words) [1]: better affinity and catalytic efficiency
2 | rice OsHSL1 (SEQ ID NO: 1) mutant OsHSL1_I335F (Oryza sativa Japonica Group; I335F) |  |  |  |  |  |  |  |  | Km [2]: 48.4211 µM; kcat [2]: 0.0057 s⁻¹
3 | rice OsHSL1 (SEQ ID NO: 1) mutant OsHSL1_F140H/L204F/F298L/I335A (Oryza sativa Japonica Group; F140H/F298L/I335A/L204F) |  |  |  |  |  |  |  |  | Km [3]: 22.6001 µM; kcat [3]: 0.0106 s⁻¹; Km [4]: 23.4659 µM; kcat [4]: 0.0083 s⁻¹
4 | rice OsHSL1 wild type, SEQ ID NO: 1 (Oryza sativa Japonica Group) |  |  |  |  |  |  |  |  | Km [2]: 44.0732 µM; kcat [2]: 0.0011 s⁻¹
5 | CS(=O)(=O)c1ccc(C(=O)C2C(=O)CCCC2=O)c([N+](=O)[O-])c1 [mesotrione] |  |  |  |  |  |  |  |  | affinity and catalytic efficiency (in words) [1]: better affinity and catalytic efficiency
6 | B1 |  |  |  |  |  |  |  |  | Km [5]: 16.2456 µM; kcat [5]: 0.0106 s⁻¹; Km [6]: 5.5811 µM; kcat [6]: 0.05957 s⁻¹
7 | B2 | 0 | 46 | 40 | 0 | 17 | 100 | 89 | 100 | Catalytic efficiency (%) 30 min ([8]; topramezone degradation, reaction time 30 min): 79%; Catalytic efficiency (%) 60 min ([8]; topramezone degradation, reaction time 60 min): 86%; Catalytic efficiency (%) 120 min ([8]; topramezone degradation, reaction time 120 min): 93%; Catalytic efficiency (%) 300 min ([8]; topramezone degradation, reaction time 300 min): 98%; Catalytic efficiency (%) 600 min ([8]; topramezone degradation, reaction time 600 min): 100%; Km [6]: 27.6770 µM; kcat [6]: 0.0002 s⁻¹
8 | B3 |  |  |  |  |  |  |  |  | affinity and catalytic efficiency to pyraquinate technical versus wild types (in words) [9]: superior to that of OsHIS1 wild type and OsHSL1 wild type
9 | B4 | 35 | 100 | 89 | 23 | 2 | 100 | 36 | 40 | 
10 | B5 | 98 | 100 | 88 | 90 | 17 | 70 | 55 | 0 | 
11 | B6 | 47 | 100 | 56 | 35 | 52 | 94 | 0 | 1 | 
